From PMC10499536 (Nature, 2022)

Target: the molecule itself
Assay: cryo-EM structure

B1: truncated mouse mIgM heavy chain lacking the two Fab arms (of IgM BCRΔFab; vector pMS-RL2b) (receptor)
heavy: AEAAAKEAAAKEAAAKAAVAEMNPNVNVFVPPRDGFSGPAPRKSKLICEATNFTPKPITVSWLKDGKLVESGFTTDPVTIENKGSTPQTYKVISTLTISEIDWLNLNVYTCRVDHRGLTFLKNVSSTCAASPSTDILTFTIPPSFADIFLSKSANLTCLVSNLATYETLNISWASQSGEPLETKIKIMESHPNGTFSAKGVASVCVEDWNNRKEFVCTVTHRDLPSPQKKFISKPNEVHKHPPAVYLLPPAREQLNLRESATVTCLVKGFSPADISVQWLQRGQLLPQEKYVTSAPMPEPGAPGFYFTHSILTVTEEEWNSGETYTCVVGHEALPHLVTERTVDKSTEGEVNAEEEGFENLWTTASTFIVLFLLSLFYSTTVTLFKVK
binding result: binds
